Measured values from patent US10801046B2, “Methods and materials for biosynthesizing multifunctional, multivariate molecules via carbon chain modification” (INVISTA NORTH AMERICA S.A.R.L., priority 2016, dated 2020).

Assay: In vivo aminotransferase activity screening, 7-aminoheptanoate by LC-MS
Format: cell-based, Escherichia coli
Conditions: in vivo conversion of 7-oxoheptanoate to 7-aminoheptanoate, 120 aminotransferases screened
Description: A 165-member aminotransferase library from Twist on IPTG-inducible T7- pUC expression vectors was co-transformed into T7 Express lysY/Iq with a constitutive expression pJ23150-derived plasmid bearing the phosphopantetheinyl transferase sfp from Bacillus subtilis, CAR_Srot from Invista and BioC from Serratia marcescens (UniprotKB Accession No. P36571 (SEQ ID NO: 165)). The resulting strains were incubated in 0.5 ml of rich media (terrific broth or LB containing 8% glycerol) supplemented with 0.4 mM IPTG and received 1 g/L monomethyl heptanedioate, 1 g/L heptanedioate, or no organic acid addition, depending on the experiment. Following incubation overnight at 37° C. in a shaking incubator, cells were pelleted and the supernatants were analyzed using LC-MS for 7-aminoheptanoate or monomethyl 7-aminoheptanoate. A Vibrio fluvialis aminotransferase (UniProtKB Accession No. F2XBU9 (SEQ ID NO: 128)) was used as a positive control.

| Molecule | 7-aminoheptanoate yield compared to the positive control (F2XBU9) |
| --- | --- |
| SEQ ID NO: 173: Methylobacterium aquaticum aminotransferase (protein, listed as Methylobacterium aquaticum) MLSNLATRDVETLIHPYTNLAAFRQTGPLVLERGHGVWVYDTDGRPYLEGMAGLWCTALGYSNEELVEAAREQMSRLPFTHLFSGRSHDPAIELAETLKELAPIPVSKVFFTSSGSEANDTQVKLTWYLNNALGRPQKKKIIGRHKGYHGVTVASASLTGLTANHADWDLPLPGFLHAACPHHYRGAEAGETEEAYSARLATELEEMILREGPETVAAFIAEPVMGAGGAIVPPKGYFAAIEPVLARYDVRFIADEVICGFGRLGTWFGSEALGMKPHSLSFAKALTSAYMPLGGVTVDETLYQAMQDQSRKIGTFGHGTTYSGHPVASAVALKTIEIYRRDKIIEGAAEKAPHFQRRLSALEEHPLVGEAKGMGLIGGLEIVADKATKRQYDPKAGVAARCVAFAQEEGLIVRFLTGDRVAVCPPLVIRPDEIDTLFDRLGTALDRTQAWIREQGLTAA | higher 7-aminoheptanoate yields |
| SEQ ID NO: 170: Acidimicrobium ferrooxidans aminotransferase (protein, Acidimicrobium ferrooxidans; Acidimicrobium ferrooxidans (strain DSM 10331 / JCM 15462 / NBRC 103882 / ICP), Acidimicrobium ferrooxidans aminotransferase) MGRFWHPFGQLYESDTNPVVFVRGEGIWVYDDTGRRYLDATAALWYANVGHGRAEIADAIAAQARELAGYSTFGTFSNRPAEELAEFLSARSPMPESEVFFVSGGGDAVETAVKLARRYFSLVGQPERTVLISRTNGYHGTWGFGTSLGGIPANRTGFGELIPTTVQVPWDDVEAVEAAIVANGPERVAAVIAEPVIGAGGVYPPPPGYFEALGATCRRHGVLLIVDSVICGFGRLGTWFGIERLGVEPDLITFAKGVTSGYLPLGGVMVSGRVAAPFKQPGAPVFRHGPTYGGHPTCTAAGIANCRILEDEQILARGAVLEGELLARLRPLASSALVAEVRGGLGLLGAVELRSDLLAEHPDALARLARLALERGIIVRVLATSIALSPPLIIEPAEIGVIVEGLADALDALAAEL | higher 7-aminoheptanoate yields |
| SEQ ID NO: 169: Marine sediment metagenome aminotransferase (protein, Description of Unknown: Marine sediment metagenome, Marine sediment metagenome aminotransferase) MTVQPNSIEARDIAFHLHSYTNARKHETNGPVVIDKGEGVFVTDTDGNRYIEAMAGLWSVAVGFGEKRLVDAAAKQMGKLPYYHTFTHKSHSPAIELAEKLVAMAPVPMSKAYFTNSGSEANDTMMKLVRYRSNALGQPQKKKFISRMRGYHGVTLASASLTGLVNNHRDFDLPIEGVLHTTCPHYWREGRDGESEEDFATRCAEDLEAMIQAEGPETIAAFIGEPVMGAGGVVVPPATYWEKIQAVLKRHDILLVADEVICGFGRTGEMFGSQTYGIEPDIMTLSKALSSSYLPISALLINEKVYGPIADRSAEIGTLGTGYTASGHPVAAAVALENLKIIEERDLVGNAREMGTLMQCRLRELENHPLVGEVRGVGLIAAIELVTDKKAKVAMQPPGAMAAQAFAILQKNGVISRAIGDALAFCPPLIIEAGHIDTIVETTRRSLDELQASL | higher 7-aminoheptanoate yields |
| SEQ ID NO: 174: Candida tenuis aminotransferase (protein, listed as Candida tenuis, Candida tenuis (strain ATCC 10573 / BCRC 21748 / CBS 615 / JCM 9827 / NBRC 10315 / NRRL Y-1498 / VKM Y-70), Candida tenuis aminotransferase) MNSSKSQICLATERQYSAKNYTPMPVVFKKAIGCKVWDVDDNEYLDFGGSYCATNQGHSHPKIVQALIDQAQICALPSRAFTHNLYGDYIKFVCQYFDFEKALPLNGGSEAIEFAIKLARAWGYTKKGISQNEAIVLFAANNYHGRTLGSTSASTTPGARKNYGPFLPKVGPYYGSEGKFIRYNHIEDIEEAFKTDGPNIAAIVLESLQGEAGIYVPKDGYLQQVKRLCEEYNILYIADEVQMGAGRTGTLLSCEQDGIKPDVLVVAKSIGGGVYPTSLVLSSGEIMDCIEPNSHGATFSGSPLSCATSKVALEVLIEDNMIDNAKHLGKIMLDGLNSIREKSSIITDVRGRGLMAGFDIDESQLNGKKVWHVCMLLRSKGIICKMVHAKTIRWAPALVITEEELRFGLRMLEQTINEITALEIADIPDAVTFDYLRY | higher 7-aminoheptanoate yields |
| SEQ ID NO: 171: Tistrella mobilis aminotransferase (protein, Tistrella mobilis (strain KA081020-065), Tistrella mobilis aminotransferase) MAYSPNSPEARDIAYHLHSYTDARRHEETGSVVLEKGDGVFVEDIHGNRYIEAMAGLWSVALGFSEKRLADAAARQMAKLPFAHTFSYKSNGPVIDLAEKLISLAPVPMSKVFFTNSGSEANDTILKLLWYRSNSMGQPQRKKIISRVRGYHGVTIASASLTGLPNNHRSFDLPIANVLHTGSPHHWKDANPGESEEDFATRRAEELEAMILAEGPETIMAFIGEPVMGAGGVVVPPATYWEKIQAVLAKYDILLIADEVICGFGRTGNMFGSQTYDMRPDIMTMSKQLSSSYLPISAFMINEKVYGPIADESHRIGVLGHGFTAGGHPVASAVALENLKIIEERDLVANAREMGERLRGRFHALEGHPLVGEVRGVGLIAAVELVTNKEAKTALEAPGALGGKVAAALQARGVIVRNMLDAIAFCPPLIIKAEEVDMIADRFEAVLNDVAAEVL | higher 7-aminoheptanoate yields |
| SEQ ID NO: 168: Rhodospirillum centenum aminotransferase (protein, Rhodospirillum centenum (strain ATCC 51521 / SW), Rhodospirillum centenum aminotransferase) MPSTAPHLGNSIASRDIASLLHPYTNLKAHESVGPMVITGGRGVTVVDDAGREYIEGVAGLWCTSLGFDEPRLVEAAVRQLRTLPFYHAFAHKSHEPGIELAEKLVALAPVPMSKAFFACSGSEANDTAVKLVWYYNNALGRPQKKKIIGRIKAYHGVTVASASLTGLPNNHRDFDLPIDRILHTDCPHWYRFHEEGEDEEAFASRLAASLEALIQREGPETVAAFIAEPVMGAGGVIVPPRTYFEKIQAVLRKHDVLLIADEVICGFGRTGAMFGSETFGLKPDIMTMAKALTSAYMPLSAVLVSEPIYRACVAESEKIGVFGHGYTYSGHPVSCAVALETLKIYEERDIVAHTRAVGARLQEGLARYRSHPLVGEVRGVGLIAGVELVADKATRQPFDPKLGVAARLAGFAQGHGAILRPIGDTLGFSPPLIITPEEVDELVARFGRALDDTTAWLEHEHRFRPA | higher 7-aminoheptanoate yields |
| SEQ ID NO: 138: Thalassospira profundimaris WP0211 aminotransferase (protein, Thalassospira profundimaris WP0211, Thalassospira profundimaris WP0211 aminotransferase) MNHRPNSLHMSDIAHSMHPYTNMRLHEEKGPMIMAEGNGARVTDSEGKEYIEGLAGLWSVAVGFSETRLADAAYAQLKRLPYYHSFAHKAHEPSIRLAEKLVEMTPEGLNRVFFTNSGSEANDTVVKMAWFLNNGLGRPEKKKFLSRTKAYHGITIASGSLTGLAGNQKDFDLPAIPVTHLSCPHFWRYGEEGETETEFTARLLKELEDTIIAEGPETIAAFIGEPVMGAGGVMTPPEGYWPGVVEICHKYDILVVSDEVINGFGRTGARFGCEKYGFTPDILVTSKQLTSSYMPLAAIVVNDKVYNAIADNTAKLGNFGHGFTGTGHPVACAVGLENLNIIEERDLMGNAKRLEPMFQDGLRAFADHPLIGEIRGVGLIAGLEMADKKTKQPFGKPGTVAAKVVALAAEEGLICRNVYDTVALCPPLIVTEDDVREIHARLGRALDRALDWAKSEGML | higher 7-aminoheptanoate yields |
| SEQ ID NO: 121: Haematobacter missouriensis aminotransferase (protein, listed as Haematobacter missouriensis) MMDTLPNSLAARDVKYLLHPNTNARMHEQNGPMVISRGDGIHVYDDAGKEYIEALAGLWSVAVGFGEKRLVEAAQRQMSTLPYYHIFSSKSHEPAIDLAETLVKMTPEHLTRVFYTNSGSEANDTVVKMIWYYNNVLGRPEKKKIIARKNGYHGITVASASLTGLPINHKDFDLPLPQMKHVTTPHFYRFGEEGETEEQFSDRLAQEIEDMILAEGPETVAAFIGEPVIGAGGVLVPPKGYWEKVQKVLKKYDILLVADEVIMGFGRSGKTFACEYYGIKPDFLVLSKQITSSYQPLAAIMLTDAIYQAIADGSQKNGAFGHGYTASGHPVAMAVAIENLKIIEERGLVANAEKVGAYMQKRLREFADHPLVGEVRGVGLIAAVELVADKATKAKFDPVGKAGAIYTRKSAENGLINRAIGDTICFCPPLIITEAQVDEMIARFSKSLDETAAELKG | higher 7-aminoheptanoate yields |
| SEQ ID NO: 172: Pseudomonas taiwanensis SJ9 aminotransferase (protein, Pseudomonas taiwanensis SJ9, Pseudomonas taiwanensis SJ9 aminotransferase) MSQSNILLAKKDVQHHLHPYTDARLHQDVGPLIIDRGEGVYVFDVEGKRYIEAMSGLWSVALGFSNERLVKAAEQQMRKLPFYHIFTHKGHGPSIELAEKLIEIAPVPMSKVFFTNSGSEANDTVVKMIWYRNNALGKPEKKKFISRLNAYHGITAVSASLTGLPVNQRGFDVPLPGFHHVSCPHFYRNGQPGETEEQFADRMAAELESVILREGPETIAAFYGEPLMGAGGVIVPPRTYWEKMQAVCRKYDILIVADEVICGFGRTGKMFGCETFGIQPDVMVISKQMSSSYQPIAAILINEKVFEGIADQSRALGTLGHGFTASGHPVASAVALENIKIIQEQNLVGHAAEMGELLRAKLAGFADHPMVGEVRGCGLIAAVELVTDRKTKAPFETVGRLGRFLAARAQAHGMITRPIGDSIAFCPPLISTKQEIQEIADIFGKAFEDTERWFSQGGK | higher 7-aminoheptanoate yields |
